In the DeepSol protein solubility set:

Test: soluble on expression in E. coli; label from the status in PepcDB or PDB records

Sequence | soluble on expression in E. coli
MAHHHHHHMGKLSKDRRDIYYRKAKESGYRARSSFKLIQINEKFGILKLFKPDIYNCNNEKDLINIYNEHYCYNIVDLCAAPGSWSQVLKNICLYNYYQILYMINKYNNNENIKNIQHEEFLNKFSLYINYNEELENKIKNLKIKCSNIKEPNIVAVDLQEIGNMNYVKIIQGDITKMSTIDKILKCMNNKINSDEENVNVFYNMEQQKKENNFSYAHTVVSDGAPDITGMNDIDEFIQSQLILSSLKVCCSVLKVGGNFISKIFRGEHTGLLILHLNKFFQRVYICKPQSSRNKSLESFLVCLNFSLPRSNIISMNNHNAENKINDKYLSEEQMRKFHAQLITYKDKDDQESEEKKENYNSHDNIDYNLCHTTKHNKNISDEIETKEVSSPYEHNNIVENNVTPNSDMLKNINKIINEYDNDKNNLDIFNFYCSDSDEEIKYFNSEDEEVVNNYISSESFMSNKLFSFIATDNYYDSDKSYLLPENYVRHEPQLMPLKPPYMLSLQKKRQEVKK | not soluble
EVQLLEQSGAEVKKPGSSVQVSCKASGGTFSMYGFNWVRQAPGHGLEWMGGIIPIFGTSNYAQKFRGRVTFTADQATSTAYMELTNLRSDDTAVYYCARDFGPDWEDGDSYDGSGRGFFDFWGQGTLVTVSSASTKGPSVFPLAPSSKSTSGGTAALGCLVKDYFPEPVTVSWNSGALTSGVHTFPAVLQSSGLYSLSSVVTVPSSSLGTQTYICNVNHKPSNTKVDKKVEPKSCDKTS | soluble
MKNKKTLTKVALTTGLALTAVAPYGVGHAEETDQLQVQIQEESFRSGELTQPSQKAPENVVKDALKEKTEQALSPKQVNGETGVDYKVLQKRGSYDGTTLVRIQQTYEGKEVYGHQLTAHVDNSGVIKSVSGDSAQNLKQEELKKPINLSKDEATQYIYTKYGNDINFISEPEVKEVIFVDENNGQASNAYQVTFEAATPNYISGTYLINAQNGDMLKNMVQESNLKASEKLVGALKKSKKSSLTSLTGTGKDDLGISRSFGISKQSNGKYALADYTRGQGIETYDVNYRDITKEESYYPGTLATSTSTTFNDPKAVSAHYLATKVFDFYKDKYNRNSFDNQGQKVVSVVHAWDSGDTNDPKNWQNALSANNGSMLVYGDPIVKAYDVAGHEFTHAVTSSESNLEYYGESGAINEALSDIMGTSIEKYVNNGSFNWTMGEQTGSVFRDMENPTSVPSSLGVPYPDDYSEFNDFNGWDQGGVHFNSSIINKVAYLIAKGGTHNGVTVKGIGEDKMFDIFYYANTDELNMTSNFKELRSACIRVATNKYGANSAEVQAVQKAFDAAKIK | not soluble
MSLQRPKVKGMDQTLATSRKTSNACNVLALCTRDNPAILTIAHRGFWTATAENSLASVRAAVAAGVEMIEIDTQATADGRLVVIHDETLDRTTTGKGTVSALPFEVVRAAKLKAGAGGDGADVTDECVPTLEEVLEEARGRITVNIDTKFTRDLPQVMETVLRLGVEDQVLVKTDVDPEAERFEVLGSHWFGRIPHMPMFPVRKGKFAEDLRRIEALKAPMIEVKFTDIADLAEGRAEMERQNIRLWINSLDVSHCLDFNDTRALSNPEAVWGALAEAGTGAIQTDEVEAFTAWLKAGAGETGRAWTREGHHHHHH | soluble
MKFYEEKIDSKRVFEGKMISVRVDRVRLPDGRESTREVVDHPGAVVIVPVLGGKILFVEQYRYPIEQVLLELPAGKLDPGESPEECAKRELEEETGYRAKKLSYLGKIFTTPGFTTEVIHIFAAEDLEKTSQNTDPDEFIEVKEVPIEEALSLLKNAEIEDSKTICALTRFFFAKGVIR | soluble
LPSPSRQASTRRMSIGESIDGKINDWEEPRLDIEGFVVDYFTHRIRQNGMEWFGAPGLPSGVQPEHEMMRVMGTIFEKKHAENFETFSEQLLAVPRISFSLYQDVVRTVGNAQTDQSPMSYGRLIGLISFGGFVAAKMMESVELQGQVRNLFVYTSLFIKTRIRNNWKEHNRSWDDFMTLGKQMKEDYERAEAEKVGRRKQNRR | soluble
DVKIEKLKDNLYVYTTYNTFNGTKYAANAVYLVTDKGVVVIDCPWGEDKFKSFTDEIYKKHGKKVIMNIATHSHDDRAGGLEYFGKIGAKTYSTKMTDSILAKENKPRAQYTFDNNKSFKVGKSEFQVYYPGKGHTADNVVVWFPKEKVLVGGCIIKSADSKDLGYIGEAYVNDWTQSVHNIQQKFSGAQYVVAGHDDWKDQRSIQHTLDLINEYQQKQKASN | soluble
HLPETIYVIRKGDMVIRPKYDEYQQTNGTEIIRFDQTRKESPFKVQRIIERSCKFYGNNYISKKAETNRITGISSKPPILLTPLFPTYFFPTHSDRQEENIWINMHYIENVKELKNRKSKIIFANGDSLTLNVSFHSLWHQYTNAIIYYYMVDKQSRMKSNNPEQPIDYNQSSLNIFEALSRYSLFEEN | not soluble
AHHHHHHGSRFLIRLVPEDKDRAFKVPYNHQYYLQGLIYNAIKSSNPKLATYLHEVKGPKLFTYSLFMAEKREHPKGLPYFLGYKKGFFYFSTCVPEIAEALVNGLLMNPEVRLWDERFYLHEIKVLREPKKFNGSTFVTLSPIAVTVVRKGKSYDVPPMEKEFYSIIKDDLQDKYVMAYGDKPPSEFEMEVLIAKPKRFRIKPGIYQTAWHLVFRAYGNDDLLKVGYEVGFGEKNSLGFGMVKVEGNKTTKEAEEQEKITFNSREELKTGV | not soluble
MSLGNPAAMLAAYNTSTQVAPQPQLGPRAGEVQLSSEQQAMIDYVLAGKDVIVDATVGSGKTTAIQRLCSIMGADHDVLYLTYSKLLKVDAQQRVRGAKVQNYHGIVYPHLLKAGIKCGISESIREFNKNFKHISRTFPSYDLLVIDEYQDINEDYAELLRNIKSVNPLMQIVMVGDLEQKVRSDTTLDPQEFAAQLCEDPVFAPFTQSFRIGEAMAAGLADAWNKPIVGANTAQQIEYRSFAEAVVLIQSTEPSKLLCLGSRNGQMSDALNVVERKSPAKFNKKTVFASIRDGDSQIAHPNDAAVFTTFDSSKGLERDTCVVFDYDEEFWDMRLGYPNVDPVVMRNVFLVAASRGKNKVVFVRSDSLQAAYEAGADWAAGLAVGVVDNNTEVAPEVDAHTPAEESKGDVGEVQSQIERMMGFIPVSVFKELPELAPSEYARPISVTEAFDFKYAENVEACFDLLDVKRLDNGKGAAIEVNRSDGLIDLSPTVGNFQEAVFFKDYNVHTALSAYPSQFAKNLKRLVKKNNSVWRNCLIVTAASTEQMRYVDQVRSSIPVAAEKALVSRLSTRLNADSRNQIPLILDGEAVQSKVVRTPMSFAGVADAVHKGVLYELKFVSELTHPMFLQLAMYLVMSGMKDGILWNTRTDEAWQVRVPDPKRFLNAVVLCVSKQDYRVGNFDLPSTGGEGHHHHHH | soluble
MGHHHHHHSHMLFIKFIHLEVFSMPERAIARHEVREIEQRHTMDGPRQDATLDEEEDMVIIYNRVPKTASTSFTNIAYDLCAKNKYHVLHINTTKNNPVMSLQDQVRFVKNITSWKEMKPGFYHGHVSYLDFAKFGVKKKPIYINVIRDPIERLVSYYYFLRFGDDYRPGLRRRKQGDKKTFDECVAEGGSDCAPEKLWLQIPFFCGHSSECWNVGSRWAMDQAKYNLINEYFLVGVTEELEDFIMLLEAALPRFFRGATELYRTAPDTATPSHRHGPICGSKSISSLLVKVSPVCKDSHCLGKCSRNGLSAV | not soluble
MSSGRNISCRMATRSCFFRLLQGVEMLRIADKTFDSHLFTGTGKFASSQLMVEAIRASGSQLVTLAMKRVDLRQHNDAILEPLIAAGVTLLPNTSGAKTAEEAIFAAHLAREALGTNWLKLEIHPDARWLLPDPIETLKAAETLVQQGFVVLPYCGADPVLCKRLEEVGCAAVMPLGAPIGSNQGLETRAMLEIIIQQATVPVVVDAGIGVPSHAAQALEMGADAVLVNTAIAVADDPVNMAKAFRLAVEAGLLARQSGPGSRSYFAHATSPLTGFLEASA | soluble
MGSDKIHHHHHHMKVLEGIRVLDFGRFIAGPFCAALLADFGADVIRIDRVGGSEDRFVAPVTSEGEGAFFLQVNRNKRSITLDLDSEEGQAVVRKLLLNTDVVVANMPPRTIAALGLDYESLRKVKPDIILTASSAFGADPAVRDRVGFDGVGQAMSGAVHLTGLPDHPMKSMVPVVDFSTALCCALGTMMALYERKSSGQGQEVGASLLHTALTLSSGSLIEEALRGLNRQATVNRSPTYGPSDIFRVKDGWIIAQVIGPAMFKRWTRMVGRPELLDDPRFADDAMRGEHGEVLSDIMSDWCAGRTREEALAILEGARIPGGPVNTPRQALEDEVVRASGAFHGVDYPGAAAQVPLVATPVSLSRTAPAIARRPPTAGEHTEEVLRDAGYAPGEIVALRERGVI | not soluble
MGSDKIHHHHHHMSEKTLLELPKKFMEALMAPFIGREEEAKVITLALLSKEHVILIGEPGTAKSALARRAAELLNAKFFMYLLTKYTEPAELFGALDINALKDGQYKRITKDRLPESQIAFLDEIFNANSAILNALLSLLNERVIYDGYNVIKVPLRTLISASNRVPDEPELEALYDRLLLRHYARPVGEELWKQLLDATWEIEFTNRWAVKEPIMNIEHLDKLYSYLSQVDLSGVKNKLLKLYAMLEEKGIHLSDRRKGKVLKVVSAHAILNSRLKATEEDLIVLKYIAPREIDDFEKVAALLSEELKTPIKYMKELNEIYNNIKEAAKYVEAANESDPRLIELIRSLRATRDRIVALGKESGDEKVEEFSKEVLSEIDKLIEKVARKLGIYP | not soluble
MGSDKIHHHHHHVVKHPAWSRFGAEVRRLRVQSGYSQAQLARAIPLSQSMLSGIELGRKGAKRDHAEALDRVLNTGGRLVRLWDSLNSIPAHPSWFQNVLALERKAVEIREYQMVVLPGLLQTEDYARSLIRPAQPWANAEKVDELVHARMSRREILTAPDRPLCWFVVDQVVIDRVTGSPTVMKEQLTYLLNLIEDHTIRFQVFPQEIPLHPGLTGPIRIMSFDDRPTMAYVEHTLGGLLTDQQQEVRYCSAIFSALQSEALSSHASADYIRRRKDQL | not soluble
MGSDKIHHHHHHAQQKVEILPFGNMDQWVTREIKESGIIGGNTKKVYAIGPTETIVGAKPYANKGGSPWGTSNVMARVSGITKTNTSVFPETRGDGFCARLDTRMESVKVLGIVDITVLAAGSMFLGTVHEPIKSTKNPNKMLQMGIPFTDRPSAIQFDYKVKMSDRENRIRATGFSKITDVPGKDFPAVILLLQKRWEDAKGNVYAKRIGTMVNYYYHSTDWKNGSKYDIMYGDITKDPAYKAHMMRLQASEYFTVNSKGESVPIHEVAWGEADDVPTHMILQFTSSHGGAYIGSPGNSLYIDNVKLIY | not soluble
MSLEPASAPKVERLEVSAYTVPTETPESDGTIAWSETTLVMVRMAACGAEGLGYTFADVATAALIDAHLKDAVVGHNPLNIPELWSTMVRKVRNLGRPGVCSMAISAVDNALWDLKARLLHLSVADLLGRAHDSIGAYGSGGFTSYSDEELRQQLTGWIGQGLTQVKMKIGSDPASDLARVRSARGAIGPDAELFVDANGAYDRKQALAKAAAFADLGVSWFEEPVSSDDLAGLRLIRERAPAGMRIAAGEYGYDSFYFRRMLEAEAVDVLQGDATRCAGITGFLAAGNLSTSFSTPFSAHTAPSLHAHAACALTSAINVEYFFDHYRIEQMFFDGALVPSNGVLRPDSTRPGFGLECKLSDMEKYRVYGNVTTEGHHHHHH | not soluble
MRDMIIVVPIGEVPSDVLSFLSENIESFYMKFGIGVKIIGSLPISAFSHAYDFYRNQYLARHFLPALSIIRRDYKALAVMGVTEVDLYESGLNFIFGIAHPGFGVALISLHRLYPEFYGEPPDRKLLKERALKEAMHELGHVFGLEHCPNPKCVMHFSNSIIDTDIKSWMYCKNCLRKLEERLGRGYVRGRTLEHHHHHH | not soluble
